According to patent publication US20240228599A1:

Target: cynomolgus monkey Factor B (cynomolgus monkey)
Assay: ELISA; cynomolgus Factor B coated at 5 µg/mL, mAb in 3-fold dilutions from 10 µg/mL; EC50 by Prism according to the text, headed 'Binding Affinity (M)' on the sheet

- EC50: 5.56 nM
B1: anti-factor Bb monoclonal antibody M12 (antibody, V domains shown)
VH: EVQLQQSGPELVKPGASVKMSCKASGYSFTDYLMNWVKQSHGKSLEWIGRINPYNGDAFYNQRFKGKATLTVDKSSSTAHMELRSLTSEDSALYYCARLENDYGFTYWGQGTLVTVSA
VL: DIVMTQAAFSNPVTLGTSASISCSSSKSLLHSNGITYLYWYLQRPGQSPQLLIYRMSNLASGVPDRFSGSGSGTDFTLRISRVEAEDVGVYYCAQMLERPWTFGGGTKLEIK
